According to US11994512B2, “Single-cell genomic methods to generate ex vivo cell systems that recapitulate in vivo biology with improved fidelity” (Massachusetts Institute of Technology, priority 2018, dated 2024):

Test system: intracellular proteome of ENR+CD and ENR organoids
Experiment: LC-MS/MS TMT proteomics of ENR+CD versus ENR organoids
Type: cell-based, C57BL/6 mice
Details: for Average logFC / M1-1 Log2 Median Normalized / M1-2 Log2 Median Normalized / M2-1 Log2 Median Normalized / M2-2 Log2 Median Normalized: protein abundance, ENR+CD versus ENR organoids; for Average logFC: aggregate of the four sample pairs; for M1-1 Log2 Median Normalized: replicate M1-1; for M1-1 Log2 Median Normalized / M1-2 Log2 Median Normalized / M2-1 Log2 Median Normalized / M2-2 Log2 Median Normalized: log2 ratio; for M1-2 Log2 Median Normalized: replicate M1-2; for M2-1 Log2 Median Normalized: replicate M2-1; for M2-2 Log2 Median Normalized: replicate M2-2; for change: up = enriched in ENR+CD, down = enriched in ENR, FDR<0.05 and log fold change cut-off

Molecule | Average logFC | M1-1 Log2 Median Normalized | M1-2 Log2 Median Normalized | M2-1 Log2 Median Normalized | M2-2 Log2 Median Normalized | change
P97449 (protein, UniProt P97449 1-966, looked up, full-length) MAKGFYISKTLGILGILLGVAAVCTIIALSVVYAQEKNRNAENSATAPTLPGSTSATTATTTPAVDESKPWNQYRLPKTLIPDSYRVILRPYLTPNNQGLYIFQGNSTVRFTCNQTTDVIIIHSKKLNYTLKGNHRVVLRTLDGTPAPNIDKTELVERTEYLVVHLQGSLVEGRQYEMDSQFQGELADDLAGFYRSEYMEGDVKKVVATTQMQAADARKSFPCFDEPAMKAMFNITLIYPNNLIALSNMLPKESKPYPEDPSCTMTEFHSTPKMSTYLLAYIVSEFKNISSVSANGVQIGIWARPSAIDEGQGDYALNVTGPILNFFAQHYNTSYPLPKSDQIALPDFNAGAMENWGLVTYRESSLVFDSQSSSISNKERVVTVIAHELAHQWFGNLVTVAWWNDLWLNEGFASYVEYLGADYAEPTWNLKDLMVLNDVYRVMAVDALASSHPLSSPADEIKTPDQIMELFDSITYSKGASVIRMLSSFLTEDLFKKGLSSYLHTYQYSNTVYLDLWEHLQKAVNQQTAVQPPATVRTIMDRWILQMGFPVITVNTNTGEISQKHFLLDSKSNVTRPSEFNYIWIAPIPFLKSGQEDHYWLDVEKNQSAKFQTSSNEWILLNINVTGYYLVNYDENNWKKLQNQLQTDLSVIPVINRAQIIHDSFNLASAKMIPITLALDNTLFLVKEAEYMPWQAALSSLNYFTLMFDRSEVYGPMKRYLKKQVTPLFFYFQNRTNNWVNRPPTLMEQYNEINAISTACSSGLKECRDLVVELYSQWMKNPNNNTIHPNLRSTVYCNAIAFGGEEEWNFAWEQFRNATLVNEADKLRSALACSKDVWILNRYLSYTLNPDYIRKQDTTSTIISIASNVAGHPLVWDFVRSNWKKLFENYGGGSFSFANLIQGVTRRFSSEFELQQLEQFKADNSATGFGTGTRALEQALEKTRANIDWVKENKDAVFKWFTENSS | 1.247 | 1.246 | 1.528 | 1.2875 | 0.807 | up
P60824 (protein, UniProt P60824 1-172, looked up, full-length) MASDEGKLFVGGLSFDTNEQALEQVFSKYGQISEVVVVKDRETQRSRGFGFVTFENIDDAKDAMMAMNGKSVDGRQIRVDQAGKSSDNRSRGYRGGSAGGRGFFRGGRSRGRGFSRGGGDRGYGGGRFESRSGGYGGSRDYYASRSQGGSYGYRSSGGSYRDSYDSYATHNE | 1.155 | 0.902 | 1.138 | 1.3145 | 1.267 | up
P70429 (protein, UniProt P70429 1-414, looked up, full-length) MSEQSICQARASVMVYDDTSKKWVPIKPGQQGFSRINIYHNTASSTFRVVGVKLQDQQVVINYSIVKGLKYNQATPTFHQWRDARQVYGLNFASKEEATTFSNAMLFALNIMNSQEGGPSTQRQVQNGPSPEEMDIQRRQVMEQQHRQESLERRISATGPILPPGHPSSAASTTLSCSGPPPPPPPPVPPPPTGSTPPPPPPLPAGGAQGTNHDESSASGLAAALAGAKLRRVQRPEDASGGSSPSGTSKSDANRASSGGGGGGLMEEMNKLLAKRRKAASQTDKPADRKEDESQTEDPSTSPSPGTRATSQPPNSSEAGRKPWERSNSVEKPVSSLLSRTPSVAKSPEAKSPLQSQPHSRVKPAGSVNDVGLDALDLDRMKQEILEEVVRELHKVKEEIIDAIRQELSGISTT | 1.275 | 1.275 | 1.519 | 1.2085 | 1.206 | up
P56695 (protein, UniProt P56695 1-890, looked up, full-length) MNSGTPPPSPSGPPPPPAPQPQARARLNATASLEQDKIEPPRAPRPQADPSAGRSAGEAAAPEPRAPQTGSREETDRAGPMKADVEIPFEEVLEKAKAGDPKAQTEVGKHYLRLANDADEELNSCSAVAWLILAAKQGRREAVKLLRRCLADRKGITSENEAEVKQLSSETDLERAVRKAALVMYWKLNPKKKKQVAVSELLENVGQVNEQDGGAQPGPVPKSLQKQRRMLERLVSSESKNYIALDDFVELTKKYAKGIIPTNLFLQDEDEDEDELAGKSPEDLPLRQKVVKYPLHAIMEIKEYLIDVASKAGMHWLSTIVPTHHINALIFFFIISNLTIDFFAFFIPLVVFYLSFVSMVICTLKVFQDSKAWENFRTLTDLLLRFEPNLDVEQAEVNFGWNHLEPYIHFLLSVVFVIFSFPLASKDCIPCSELAVISTFFTVTSYMSLSSSAEPYTRRALVTEVAAGLLSLLPTVPVDWRFLKVLGQTFFTVPVGHFIILNVSLPCLLYVYLFYLFFRMAQLRNFKGTYCYLVPYLVCFMWCELSVVILLQSTGLGLVRASIGYFLFLFALPILVAGLALMGTVQFARWFLSLDLTKIMVTTVICGVPLLFRWWTKANFSVMGMVKSLTKSSMVKLILVWLTAILLFCWFYVYRSEGMKVYNSTLTWQQYGFLCGPRAWKETNMARTQILCSHLEGHRVTWTGRFKYVRVTEIDNSAESAINMLPFFLGDWMRCLYGEAYPSCSSGNTSTAEEELCRLKQLAKHPCHIKKFDRYKFEITVGMPFGTNGNRGHEEDDITKDIVLRASSEFKDVLLNLRQGSLIEFSTILEGRLGSKWPVFELKAISCLNCMTQLSPARRHVKIEQDWRSTVHGALKFAFDFFFFPFLSAA | 1.149 | 1.527 | 0.901 | 0.7335 | 1.433 | up
P81117 (protein, UniProt P81117 1-420, looked up, full-length) MRWRIIQVQYCFLLVPCMLTALEAVPIDVDKTKVHNTEPVENARIEPPDTGLYYDEYLKQVIEVLETDPHFREKLQKADIEEIRSGRLSQELDLVSHKVRTRLDELKRQEVGRLRMLIKAKLDALQDTGMNHHLLLKQFEHLNHQNPNTFESRDLDMLIKAATADLEQYDRTRHEEFKKYEMMKEHERREYLKTLSEEKRKEEESKFEEMKRKHEDHPKVNHPGSKDQLKEVWEETDGLDPNDFDPKTFFKLHDVNNDGFLDEQELEALFTRELEKVYNPQNAEDDMIEMEEERLRMREHVMSEIDNNKDRLVTLEEFLRATEKKEFLEPDSWETLDQQQLFTEDELKEYESIIAIQENELKKRAEELQKQKEDLQRQHDHLEAQKQEYHQAVQHLEQKKLQQGIAPSGPAGELKFEPHT | 1.372 | 1.736 | 1.385 | 1.0905 | 1.276 | up
P97314 (protein, UniProt P97314 1-193, looked up, full-length) MPVWGGGNKCGACGRTVYHAEEVQCDGRSFHRCCFLCMVCRKNLDSTTVAIHDEEIYCKSCYGKKYGPKGYGYGQGAGTLNMDRGERLGIKPESAQPHRPTTNPNTSKFAQKYGGAEKCSRCGDSVYAAEKIIGAGKPWHKNCFRCAKCGKSLESTTLTEKEGEIYCKGCYAKNFGPKGFGYGQGAGALVHAQ | −1.204 | −1.447 | −1.021 | −1.3045 | −1.045 | down
P63158 (protein, UniProt P63158 1-215, looked up, full-length) MGKGDPKKPRGKMSSYAFFVQTCREEHKKKHPDASVNFSEFSKKCSERWKTMSAKEKGKFEDMAKADKARYEREMKTYIPPKGETKKKFKDPNAPKRPPSAFFLFCSEYRPKIKGEHPGLSIGDVAKKLGEMWNNTAADDKQPYEKKAAKLKEKYEKDIAAYRAKGKPDAAKKGVVKAEKSKKKKEEEDDEEDEEDEEEEEEEEDEDEEEDDDDE | −1.338 | −1.875 | −1.062 | −1.2145 | −1.339 | down
P97290 (protein, UniProt P97290 1-504, looked up, full-length) MASRLTPLTLLLLLLAGDRAFSDPEATSHSTQDPLEAQAKSRESFPERDDSWSPPEPTVLPSTWPTTSVAITITNDTMGKVANESFSQHSQPAAQLPTDSPGQPPLNSSSQPSTASDLPTQATTEPFCPEPLAQCSDSDRDSSEAKLSEALTDFSVKLYHAFSATKMAKTNMAFSPFSIASLLTQVLLGAGDSTKSNLESILSYPKDFACVHQALKGFSSKGVTSVSQIFHSPDLAIRDTYVNASQSLYGSSPRVLGPDSAANLELINTWVAENTNHKIRKLLDSLPSDTCLVLLNAVYLSAKWKITFEPKKMMAPFFYKNSMIKVPMMSSVKYPVAQFDDHTLKAKVGQLQLSHNLSFVIVVPVFPKHQLKDVEKALNPTVFKAIMKKLELSKFLPTYLTMPHIKVKSSQDMLSVMEKLEFFDFTYDLNLCGLTEDPDLQVSAMKHETVLELTESGVEAAAASAISFGRSLPIFEVQRPFLFLLWDQQHRFPVFMGRVYDPRG | 1.245 | 1.362 | 1.123 | 1.2185 | 1.278 | up
P56395 (protein, UniProt P56395 1-134, looked up, full-length) MAGQSDKDVKYYTLEEIQKHKDSKSTWVILHHKVYDLTKFLEEHPGGEEVLREQAGGDATENFEDVGHSTDARELSKTYIIGELHPDDRSKIAKPSDTLITTVESNSSWWTNWVIPAISALAVALMYRLYMAED | −1.382 | −1.162 | −0.964 | −1.6925 | −1.71 | down
